We go through three molecules from article PMC10201424, “Biochemical characterisation of Mer3 helicase interactions and the protection of meiotic recombination intermediates” (Nucleic Acids Research, 2022).

Conditions in all cases: both partners purified
In test [1] the target is T1, Top3/Rmi1 complex (as used in MST and XL-MS) (S. cerevisiae, UniProt P13099 1-656; Q02685 1-241).
T1 construct: Top3 (type IA topoisomerase), S. cerevisiae, from SK1 strain genomic DNA; untagged; Rmi1, S. cerevisiae, from SK1 strain genomic DNA; The methods describe a GST-tagged and an untagged (3C protease cleaved) preparation; source: Hi5 insect cells (co-expressed from pBIG1a), purified
T1 sequence (looked up) 1: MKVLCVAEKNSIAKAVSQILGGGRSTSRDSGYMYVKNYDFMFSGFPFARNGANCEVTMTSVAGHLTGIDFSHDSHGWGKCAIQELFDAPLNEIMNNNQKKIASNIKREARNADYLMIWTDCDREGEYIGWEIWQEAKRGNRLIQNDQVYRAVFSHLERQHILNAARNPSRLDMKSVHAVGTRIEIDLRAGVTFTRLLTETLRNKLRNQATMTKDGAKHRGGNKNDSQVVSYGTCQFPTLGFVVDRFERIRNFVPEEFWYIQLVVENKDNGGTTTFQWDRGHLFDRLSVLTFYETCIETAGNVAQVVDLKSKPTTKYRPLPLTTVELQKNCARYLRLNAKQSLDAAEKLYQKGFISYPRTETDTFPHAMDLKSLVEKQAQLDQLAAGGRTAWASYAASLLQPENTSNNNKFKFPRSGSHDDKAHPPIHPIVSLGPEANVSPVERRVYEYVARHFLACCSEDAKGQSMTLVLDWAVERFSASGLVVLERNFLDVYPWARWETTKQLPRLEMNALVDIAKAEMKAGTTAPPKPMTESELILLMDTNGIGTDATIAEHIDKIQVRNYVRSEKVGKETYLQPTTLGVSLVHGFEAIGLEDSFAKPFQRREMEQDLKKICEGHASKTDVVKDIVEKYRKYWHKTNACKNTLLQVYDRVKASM
T1 sequence (looked up) 2: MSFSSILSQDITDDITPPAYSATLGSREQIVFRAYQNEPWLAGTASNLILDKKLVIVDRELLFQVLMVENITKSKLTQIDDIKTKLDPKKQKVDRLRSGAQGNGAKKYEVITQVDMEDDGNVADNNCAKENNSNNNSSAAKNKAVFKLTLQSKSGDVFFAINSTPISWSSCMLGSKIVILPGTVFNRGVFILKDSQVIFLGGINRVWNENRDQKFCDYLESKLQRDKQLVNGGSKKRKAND
In words: MST; 30 nM RED-NHS labelled Sgs1(1–605), Top3–Rmi1 titrated; 50 mM Tris–HCl pH 7.4, 150 mM NaCl, 10 mM MgCl2, 0.05% Tween-20; 25°C; triplicates.

Test [2] addresses T2, Mer3-Strep (full-length S. cerevisiae Mer3 with C-terminal 2xStrep-II tag) (S. cerevisiae, UniProt P51979 1-1187, phosphorylated in insect cells; high-confidence sites S17, S80, T100, S398, S958, T1092).
T2 sequence (looked up): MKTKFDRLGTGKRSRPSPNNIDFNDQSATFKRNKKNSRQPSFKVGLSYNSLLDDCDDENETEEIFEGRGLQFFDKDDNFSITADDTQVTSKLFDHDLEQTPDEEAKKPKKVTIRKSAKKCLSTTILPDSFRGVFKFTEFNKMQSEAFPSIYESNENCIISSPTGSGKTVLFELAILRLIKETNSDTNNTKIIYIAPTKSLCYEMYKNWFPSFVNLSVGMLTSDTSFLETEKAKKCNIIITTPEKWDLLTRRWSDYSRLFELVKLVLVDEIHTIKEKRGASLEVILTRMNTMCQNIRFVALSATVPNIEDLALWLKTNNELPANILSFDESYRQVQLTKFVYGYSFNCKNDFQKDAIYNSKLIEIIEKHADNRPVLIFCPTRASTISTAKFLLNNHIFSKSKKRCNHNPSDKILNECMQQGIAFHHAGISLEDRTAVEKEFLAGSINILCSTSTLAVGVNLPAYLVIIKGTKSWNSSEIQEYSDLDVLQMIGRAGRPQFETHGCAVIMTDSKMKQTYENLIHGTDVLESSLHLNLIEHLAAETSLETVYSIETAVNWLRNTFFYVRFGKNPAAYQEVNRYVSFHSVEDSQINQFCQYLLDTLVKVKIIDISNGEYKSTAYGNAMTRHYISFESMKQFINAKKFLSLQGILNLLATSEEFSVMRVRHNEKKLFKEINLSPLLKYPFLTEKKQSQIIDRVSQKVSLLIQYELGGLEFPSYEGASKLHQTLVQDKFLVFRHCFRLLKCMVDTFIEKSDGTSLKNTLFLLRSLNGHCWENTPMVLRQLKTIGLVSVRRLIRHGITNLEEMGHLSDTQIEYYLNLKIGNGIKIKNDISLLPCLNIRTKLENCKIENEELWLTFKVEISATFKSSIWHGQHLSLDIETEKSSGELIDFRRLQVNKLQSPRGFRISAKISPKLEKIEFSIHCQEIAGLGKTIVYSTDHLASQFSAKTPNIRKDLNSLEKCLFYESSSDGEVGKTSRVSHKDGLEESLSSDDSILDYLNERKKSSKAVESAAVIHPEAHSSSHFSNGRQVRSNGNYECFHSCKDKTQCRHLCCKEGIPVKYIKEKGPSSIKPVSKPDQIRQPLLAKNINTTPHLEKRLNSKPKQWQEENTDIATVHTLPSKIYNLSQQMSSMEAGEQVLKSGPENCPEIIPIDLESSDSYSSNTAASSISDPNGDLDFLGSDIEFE
Description: pull-down; Mer3-Strep (0.7 μM) on streptavidin magnetic beads, His-Dmc1 3.2 μM or Rad51 2.8 μM; 25 mM HEPES pH 7.5, 5% glycerol, 100 mM NaCl, 1 mM TCEP, 0.1% Tween-20; stained gel.

Another test addresses T3, Top3/GST-Rmi1 complex (S. cerevisiae, UniProt P13099 1-656; Q02685 1-241).
T3 construct: Top3 (type IA topoisomerase), S. cerevisiae, from SK1 strain genomic DNA; untagged; Rmi1, S. cerevisiae, from SK1 strain genomic DNA; also called GST-tagged Top3–Rmi1; GST-Rmi1/Top3; source: Hi5 insect cells (co-expressed from pBIG1a), purified (GSTrap, ResourceS, SEC); not shown: GST, N-terminal, kept
T3 sequence (looked up) 1: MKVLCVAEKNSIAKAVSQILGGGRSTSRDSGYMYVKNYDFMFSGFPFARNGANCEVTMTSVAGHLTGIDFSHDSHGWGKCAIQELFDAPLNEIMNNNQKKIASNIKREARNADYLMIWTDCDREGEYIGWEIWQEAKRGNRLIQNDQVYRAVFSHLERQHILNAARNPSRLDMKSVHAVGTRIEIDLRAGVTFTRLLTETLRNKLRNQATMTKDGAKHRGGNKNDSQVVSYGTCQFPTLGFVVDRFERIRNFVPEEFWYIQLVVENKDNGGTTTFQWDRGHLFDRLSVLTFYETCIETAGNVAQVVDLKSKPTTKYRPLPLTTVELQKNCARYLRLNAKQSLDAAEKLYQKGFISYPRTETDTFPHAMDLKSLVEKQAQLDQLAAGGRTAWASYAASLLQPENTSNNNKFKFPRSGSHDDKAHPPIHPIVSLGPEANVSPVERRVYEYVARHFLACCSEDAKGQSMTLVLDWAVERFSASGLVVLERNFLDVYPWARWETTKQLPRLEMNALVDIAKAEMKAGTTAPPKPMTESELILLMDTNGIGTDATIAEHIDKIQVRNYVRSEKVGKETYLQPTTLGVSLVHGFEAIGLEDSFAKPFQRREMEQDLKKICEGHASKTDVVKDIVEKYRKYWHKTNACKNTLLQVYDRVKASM
T3 sequence (looked up) 2: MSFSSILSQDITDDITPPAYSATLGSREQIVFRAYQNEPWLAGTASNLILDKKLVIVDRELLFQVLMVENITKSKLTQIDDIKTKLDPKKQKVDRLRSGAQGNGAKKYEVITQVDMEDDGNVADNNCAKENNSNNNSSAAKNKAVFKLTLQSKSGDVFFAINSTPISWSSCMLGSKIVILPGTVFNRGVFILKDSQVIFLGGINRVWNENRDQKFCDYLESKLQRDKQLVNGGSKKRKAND
Description: pull-down; competition: Top3/GST-Rmi1 (1 μM) on glutathione beads, Mer3-Strep 1 μM, His-Sgs1(1–107) 8 or 25 μM; 25 mM HEPES pH 7.5, 5% glycerol, 100 mM NaCl, 1 mM TCEP, 0.1% Tween-20; Coomassie.

B1: Sgs1(1–605) (domain or fragment, S. cerevisiae, UniProt P35187 1-605, looked up)
chain: MVTKPSHNLRREHKWLKETATLQEDKDFVFQAIQKHIANKRPKTNSPPTTPSKDECGPGTTNFITSIPASGPTNTATKQHEVMQTLSNDTEWLSYTATSNQYADVPMVDIPASTSVVSNPRTPNGSKTHNFNTFRPHMASSLVENDSSRNLGSRNNNKSVIDNSSIGKQLENDIKLEVIRLQGSLIMALKEQSKLLLQKCSIIESTSLSEDAKRLQLSRDIRPQLSNMSIRIDSLEKEIIKAKKDGMSKDQSKGRSQVSSQDDNIISSILPSPLEYNTSSRNSNLTSTTATTVTKALAITGAKQNITNNTGKNSNNDSNNDDLIQVLDDEDDIDCDPPVILKEGAPHSPAFPHLHMTSEEQDELTRRRNMRSREPVNYRIPDRDDPFDYVMGKSLRDDYPDVEREEDELTMEAEDDAHSSYMTTRDEEKEENELLNQSDFDFVVNDDLDPTQDTDYHDNMDVSANIQESSQEGDTRSTITLSQNKNVQVILSSPTAQSVPSNGQNQIGVEHIDLLEDDLEKDAILDDSMSFSFGRQHMPMSHSDLELIDSEKENEDFEEDNNNNGIEYLSDSDLERFDEERENRTQVADIQELDNDLKIITERKL
notes: Sgs1 helicase, S. cerevisiae, from SK1 strain genomic DNA, residues 1-605; For MST the fragment was labelled with RED-NHS dye; also called untagged Sgs1(1–605); N-terminal fragment of Sgs1; source: E. coli BL21 STAR, purified (MBPtrap, ResourceQ, 3C cleavage, SEC); not shown: His6, N-terminal, cleaved; MBP, N-terminal, cleaved
For orientation: Kd means the constant that tells how readily two partners part at equilibrium. Lower therefore signals higher affinity. Consider B1, for which the Kd in test [1] was 478 ± 205 nM.

B2: His-Dmc1 (natural protein, yeast, UniProt P25453 1-334, looked up)
chain: MSVTGTEIDSDTAKNILSVDELQNYGINASDLQKLKSGGIYTVNTVLSTTRRHLCKIKGLSEVKVEKIKEAAGKIIQVGFIPATVQLDIRQRVYSLSTGSKQLDSILGGGIMTMSITEVFGEFRCGKTQMSHTLCVTTQLPREMGGGEGKVAYIDTEGTFRPERIKQIAEGYELDPESCLANVSYARALNSEHQMELVEQLGEELSSGDYRLIVVDSIMANFRVDYCGRGELSERQQKLNQHLFKLNRLAEEFNVAVFLTNQVQSDPGASALFASADGRKPIGGHVLAHASATRILLRKGRGDERVAKLQDSPDMPEKECVYVIGEKGITDSSD
For the molecule B2, the binding result in test [2] is listed as “binds”.

B3: His-tagged Sgs1(1–107) (domain or fragment, S. cerevisiae, UniProt P35187 1-107, looked up)
chain: MVTKPSHNLRREHKWLKETATLQEDKDFVFQAIQKHIANKRPKTNSPPTTPSKDECGPGTTNFITSIPASGPTNTATKQHEVMQTLSNDTEWLSYTATSNQYADVPM
notes: also called shorter fragment of Sgs1; source: E. coli BL21 STAR, purified (Ni-NTA, ResourceQ, SEC); not shown: His6, N-terminal, kept
Turning to B3, the binding result with Top3/GST-Rmi1 complex is given as “binds”.
